The labels stand for the following.
T1: human BKB2R-derived epitope peptide (SEQ ID NO:73), PEG-biotin (human, also: PEG-biotin, site not given here)
T1 construct: also called immunogenic human BKB2R peptide fragment
T1 peptide: KEYSDEGHNVTAC

B1: L1/HC: humanized light chain L1 (SEQ ID NO:8) with HC, the mouse original 5F12G1 VH (antibody)
heavy: EVKLEESGGGLVQPGGSMKLSCVVSGFTFSDYWMSWVRHSPEMGLEWVAEIRLKSDNYATHYAESVKGRFTISRDDSKSRLYLQINSLRGEDTGIYYCTRDYYAMEYWGQGTSVTVSS
light: DIVMTQSPLSLPVTPGEPASISCRSSQTIVHSNGKTYLEWYLQKPGQSPQLLIYKVSNRFSGVPDRFSGSGSGTDFTLKISRVEAEDVGVYYCFQASHVPYTFGQGTKLEIKRTVAAPSVFIFPPSDEQLKSGTASVVCLLNNFYPREAKVQWKVDNALQSGNSQESVTEQDSKDSTYSLSSTLTLSKADYEKHKVYACEVTHQGLSSPVTKSFNRGEC
modifications: left off: a dimerising Fc or GST
B2: L2/HC: humanized light chain L2 (SEQ ID NO:9) with HC, the mouse original 5F12G1 VH (antibody)
heavy: B1 heavy
light: B1 light with D75E
modifications: left off: a dimerising Fc or GST
B3: L1/H1: humanized anti-BKB2R mAb, light chain L1 (SEQ ID NO:8), heavy chain H1 (SEQ ID NO:3), human IgG2/kappa (antibody, V domains shown)
VH: EVQLVESGGGLVQPGGSLRLSCAASGFTFSDYWMSWVRQAPGKGLEWVAEIRLKSDNYATHYAESVKGRFTISRDNAKNSLYLQMNSLRAEDTAVYYCTRDYYAMEYWGQGTLVTVSS
VL: DIVMTQSPLSLPVTPGEPASISCRSSQTIVHSNGKTYLEWYLQKPGQSPQLLIYKVSNRFSGVPDRFSGSGSGTDFTLKISRVEAEDVGVYYCFQASHVPYTFGQGTKLEIK
modifications: Humanized H1 Heavy Chain Variable Region VH; Humanized L1 Light Chain Variable Region VL
B4: H39/L37: humanized anti-BKB2R mAb, heavy chain H39 (SEQ ID NO:7), light chain L37 (SEQ ID NO:10) (antibody, V domains shown)
VH: EVKLVESGGGLVQPGGSLRLSCAVSGFTFSDYWMDWVRQAPGKGLEWVAEIRLKSDNYATHYAASVKGRFTISRDDSKSRLYLQMNSLKTEDTAVYYCTRDYYAMEYWGQGTTVTVSS
VL: B3 VL with S7T, P12S, E17Q, R24K, E39Y, N58S
modifications: Humanized H39 Heavy Chain Variable Region VH; Humanized L37 Light Chain Variable Region VL
B5: H38/L38: humanized anti-BKB2R mAb, heavy chain H38 (SEQ ID NO:6), light chain L38 (SEQ ID NO:11) (antibody, V domains shown)
VH: B3 VH with V5L, R19K, A24V, A49S, E64D, N76D, A77S, S80T
VL: B3 VL with S7T, P15S, E39D, F60A, Q105G, L109V
modifications: Humanized H38 Heavy Chain Variable Region VH; Humanized L38 Light Chain Variable Region VL
B6: humanized anti-BKB2R antibody H37/L37 (antibody, human IgG2, kappa, V domains shown)
VH: B4 VH with K3Q, V24A, A49G, S79N, R80S
VL: DIVMTQTPLSLSVTPGQPASISCKSSQTIVHSNGKTYLYWYLQKPGQSPQLLIYKVSSRFSGVPDRFSGSGSGTDFTLKISRVEAEDVGVYYCFQASHVPYTFGQGTKLEIKR
B7: humanized anti-BKB2R antibody H38/L39 (antibody, human IgG2, kappa, V domains shown)
VH: B3 VH with V5L, R19K, A24V, A49S, E64D, N76D, A77S, S80T
VL: B6 VL with I2V, Y39E, S58N
B8: humanized anti-BKB2R antibody H38/L38 (antibody, human IgG2, kappa, V domains shown)
VH: B3 VH with V5L, R19K, A24V, A49S, E64D, N76D, A77S, S80T
VL: B6 VL with S12P, P15S, Q17E, K24R, Y39D, S58N, F60A, Q105G, L109V
B9: humanized anti-BKB2R antibody H39/L38 (antibody, human IgG2, kappa, V domains shown)
VH: B4 VH
VL: B6 VL with S12P, P15S, Q17E, K24R, Y39D, S58N, F60A, Q105G, L109V
B10: humanized anti-BKB2R antibody H37/L39 (antibody, human IgG2, kappa, V domains shown)
VH: B4 VH with K3Q, V24A, A49G, S79N, R80S
VL: B6 VL with I2V, Y39E, S58N
B11: humanized anti-BKB2R antibody H39/L39 (antibody, human IgG2, kappa, V domains shown)
VH: B4 VH
VL: B6 VL with I2V, Y39E, S58N
B12: humanized anti-BKB2R antibody H38/L37 (antibody, human IgG2, kappa, V domains shown)
VH: B3 VH with V5L, R19K, A24V, A49S, E64D, N76D, A77S, S80T
VL: B6 VL
B13: humanized anti-BKB2R antibody H39/L37 (antibody, human IgG2, kappa, V domains shown)
VH: B4 VH
VL: B6 VL
B14: humanized anti-BKB2R antibody H37/L38 (antibody, human IgG2, kappa, V domains shown)
VH: B4 VH with K3Q, V24A, A49G, S79N, R80S
VL: B6 VL with S12P, P15S, Q17E, K24R, Y39D, S58N, F60A, Q105G, L109V

Substitutions are numbered along the chain they refer to. Where no end group is shown, it is not given here.

One assay addresses T2, human BKB2R-derived epitope peptide, SE ID NO:73 (Homo sapiens, UniProt P30411).
T2 construct: purchased Biosyn, Lewisville, Tex
The assay is described as follows: ForteBio Octet binding kinetics to the BKB2R epitope peptide. Particulars: Conc. 250 nM. On the procedure:
Proteins corresponding to all combinations of humanized or chimeric (5F12G1 VH and VL on human IgG2 backbone) antibodies were tested for binding to the human BKB2R-derived epitope peptide, SE ID NO:73.
A ForteBio (Menlo Park, Calif., USA) Octet® platform was used to analyze the binding affinities and binding characteristics of the humanized monoclonal antibodies to the peptide epitope (SEQ ID NO:73) and compared to the original mouse monoclonal 5F12G1. This platform employed label-free technology for measuring biomolecular interactions by optical analysis of the interference pattern of white light reflected from two surfaces: a layer of immobilized protein on the biosensor tip, and an internal reference layer. Any change in the number of molecules bound to the biosensor tip caused a shift in the interference pattern that was measured in real-time. Binding specificity, and rates of association and dissociation were monitored.
(§1) For the Octet study, antibodies were analyzed by kinetic titration of the antibodies. Antibodies were prepared in kinetic buffer (0.001 M phosphate buffered saline (NaCl 0.0138 M; KCl-0.00027 M); pH 7.4, at 25° C., 0.1 mg/ml BSA, 0.002% Tween and 0.005% Sodium Azide) followed by 1:2 serial dilutions.
(§2) Sensor Prep: Streptavidin biosensors (FortéBio Inc, Menlo Park, Calif.) were coated by incubation in a solution containing a peptide ([…]-PEG-biotin) (Biosyn, Lewisville, Tex.) at 50 μg/ml (300 seconds/1000 rpm shaking). 96 well half-volume plates were used for testing. 90 μl of sample was plated per well. Sensors were allowed to equilibrate to baseline in kinetic buffer (60 seconds/1000 rpm). The sensors were then placed into the various antibody dilutions to allow binding (association) to the probe for 500 seconds/1000 rpm, and measurements were taken. The sensors were then moved into kinetic buffer without antibody for dissociation (500 seconds/1000 rpm), and measurements were taken. Octet system software calculated kinetic constants for on rate/off rate/affinity.
[…] […] Each concentration was tested twice. The HC and LC represented the mouse original 5F12G1 VH and VL sequences.
(In BLI a coated tip is dipped into the sample, and binding shifts an interference pattern.)
Turning to B1, the “kdis” value turned out to be 0.728 s⁻¹ and the kon – broadly, the second-order rate constant of association – was found to be 239000 M⁻¹ s⁻¹.
In the same order, the values of B2 are 0.732 s⁻¹ and 2.17e+06 M⁻¹ s⁻¹.
In the same order, the values of B3 are 0.701 s⁻¹ and 1.59e+06 M⁻¹ s⁻¹.

Still in this assay, the particulars now being: Conc. 500 nM.
For B1, the “kdis” value amounted to 2.16 s⁻¹ and the “kon” value amounted to 543000 M⁻¹ s⁻¹.
In the same order, the values of B2 are 0.655 s⁻¹ and 145000 M⁻¹ s⁻¹.
In the same order, the values of B3 are 0.942 s⁻¹ and 404000 M⁻¹ s⁻¹.
In the same order, the values of B4 are 0.0288 s⁻¹ and 1.23e+06 M⁻¹ s⁻¹.
For the molecule B5, the “kdis” value amounted to 0.00763 s⁻¹ and the “kon” value was 3.06e+06 M⁻¹ s⁻¹.

The assay is the same for the next values; noted with them: Octet, epitope peptide.
As for B4, the “binding compared with the original mouse monoclonal antibody” value is listed as “stronger binding (lower KD)”.
On the same count and under the same terms, with B5 the entry was “stronger binding (lower KD)”.

The target of another assay is T1, human BKB2R-derived epitope peptide …. The assay is described as follows: BLI (Octet), peptide-PEG-biotin on streptavidin sensor, antibody 500 nM.
Settings: not given
As for the experimental part:
as §1, §2
For test humanized monoclonal antibodies, the highest concentration used was 500 nM followed by 1:2 dilutions. Each concentration was tested twice. The HC and LC represented the mouse original 5F12G1 VH and VL sequences.
Consider B6, for which binding was characterised by a dissociation constant (Kd) of 758 nM; the “Max Response” value amounted to 0.12; the koff (as a rule, the rate constant with which the complex falls apart) was found to be 1.18 s⁻¹; the kon came to 1.55e+06 M⁻¹ s⁻¹.
In the same order, the values of B7 are 93.2 nM, 0.0681, 106 s⁻¹ and 1.14e+09 M⁻¹ s⁻¹.
In the case of B8, the Kd (commonly the free concentration of one partner at which half of the binding sites on the other are occupied at equilibrium, for simple one-to-one binding) came to 2.49 nM; the “Max Response” value is 0.132; the koff turned out to be 0.00763 s⁻¹; the kon is 3.06e+06 M⁻¹ s⁻¹.
In the same order, the values of B9 are 761 nM, 0.143, 4.9 s⁻¹ and 6.44e+06 M⁻¹ s⁻¹.
In the same order, the values of B10 are 1230 nM, 0.121, 1.98 s⁻¹ and 1.11e+06 M⁻¹ s⁻¹.
In the same order, the values of B11 are 1730 nM, 0.0915, 1.26 s⁻¹ and 729000 M⁻¹ s⁻¹.
As to B12, the Kd stood at 3110 nM, the “Max Response” value amounted to 0.577, the koff was 29.4 s⁻¹ and the kon came out at 9.44e+06 M⁻¹ s⁻¹.
Turning to B13, the Kd was found to be 23.4 nM, the “Max Response” value amounted to 0.119, the koff worked out at 0.0288 s⁻¹ and the kon turned out to be 1.23e+06 M⁻¹ s⁻¹.
In the same order, the values of B14 are 220 nM, 0.173, 2.08 s⁻¹ and 9.47e+06 M⁻¹ s⁻¹.

The values above are taken from US20140017242A1, “ANTI-BRADYKININ B2 RECEPTOR (BKB2R) MONOCLONAL ANTIBODY” (Diamedica, Inc., priority 2010, published 2014).
